Patent US20180079804A1 (Hoffmann-La Roche, published 2018)
Positions count from the first letter of the chain named. Non-standard residues stand in square brackets, D forms with d. No end group written: not given here. *: point of attachment. Biotin = O=C1N[C@H]2[C@H](CS[C@H]2CCCCC(=O)*)N1; pS = N[C@@H](COP(=O)(O)O)C(=O)O; code U = not defined here; code X = not defined here

T1: Tau(pS422) fragment SEQ ID NO: 03 (human)
T1 construct: also called phosphorylated tau peptide
T1 peptide: SIDMVD[pS]PQLATLAD

T2: biotinylated pTau fragment pTau(416-430)[Bi-XUUUU-416; pSer-422]amid (human, reading uncertain; also: printed as pTau(416-430)[Bi-XUUUU-416; pSer-422]amid)
T2 construct: also called Tau(pS422) fragment
T2 peptide: {Biotin-code X-code U-code U-code U-code U}-SIDMVD[pS]PQLATLAD-NH2

T3: tau peptide residues 416 to 430 of SEQ ID NO: 01 (human, also: biotinylated, site not given here)
T3 construct: also called non-phosphorylated tau peptide
T3 peptide: SIDMVDSPQLATLAD

B1: VH35H5/VL49G1 (antibody, V domains shown)
VH: EVQVLESGGGLVQPGGSLRLSCAVSGISLSSNAINWVRQAPGKGLEWVGYIAVSGNTYYASWAKGRFTISRDNSKNTVYLQMNSLRAEDTAVYYCGKSNIWGQGTLVTVSS
VL: AQVMTQSPSSLSASVGDRVTITCRSSQSVRSNKLAWFQQKPGQPPKRLIYSASNLDYGVPSRFSGSGSGTEFTLTISSLQPEDFATYYCLGYFDSSADIVAFGGGTKVEIK
notes: IgG captured via anti-human Fc; also called antibody 2
B2: VH35H5/VL35F2 (antibody, V domains shown)
VH: B1 VH
VL: B1 VL with S31T, N54T, Y57F, S96P, A97L
notes: IgG captured via anti-human Fc
B3: VH35H5/VL31A1 (antibody, V domains shown)
VH: B1 VH
VL: B1 VL with S31N, N54D
notes: IgG captured via anti-human Fc; also called antibody 1
B4: VH35H5/VL31A1 Fab fragment (Fab, V domains shown)
VH: B1 VH
VL: B1 VL with S31N, N54D
B5: VH32/VL22 Fab fragment (Fab, V domains shown)
VH: B1 VH with I27F
VL: B1 VL with S31T, K33R, N54T
B6: VH35H5/VL49G1 Fab fragment (Fab, V domains shown)
VH: B1 VH
VL: B1 VL
B7: VH32/VL21 (antibody, V domains shown)
VH: B1 VH with I27F
VL: B1 VL with S31T, N54T, Y57F
notes: full size IgG
B8: VH32/VL22 (antibody, V domains shown)
VH: B1 VH with I27F
VL: B1 VL with S31T, K33R, N54T
notes: full size IgG
B9: mAb 086 (antibody, V domains shown)
VH: QSVEESGGRLVTPGTPLTLTCTVSGFSLSSNAINWVRQAPGKGLEWIGYIAVSGNTYYASWAKGRFTISKASTTVDLKMTSPTAEDTGTYFCGKSNIWGPGTLVTVSL
VL: AQVLTQTTSPVSAAVGSTVTISCQSSQSVRTNKLAWFQQKPGQPPKRLIYSASTLDFGVPSRFSASGSGTQFTLTISDVQCDDAATYYCLGYFDCSIADCVAFGGGTEVVVK
notes: also called rabbit antibody 086
B10: VH76A6/VL35G4 (antibody, V domains shown)
VH: B1 VH with I27F, S31N, N32S
VL: B1 VL with S31T, N54T, Y57F, L90A, D94E, S95A, S96P
notes: as for B2
B11: VH32/VL4G1 (antibody, V domains shown)
VH: B1 VH with I27F
VL: B1 VL with S31T, N54T, Y57F, S96P
B12: VH76A6/VL145B12 (antibody, V domains shown)
VH: B1 VH with I27F, S31N, N32S
VL: B1 VL with S51A, Y57F
notes: as for B2
B13: VH32/VL35G4 (antibody, V domains shown)
VH: B1 VH with I27F
VL: B1 VL with S31T, N54T, Y57F, L90A, D94E, S95A, S96P
notes: as for B2
B14: VH00/VL00 (antibody, V domains shown)
VH: B9 VH
VL: B9 VL
notes: variable domains of rabbit mAb 086; also called VH00 with VL00 (rabbit antibody); parental rabbit antibody

Target: T1, Tau(pS422) fragment SEQ ID NO: 03
Experiment: SPR capture assay (Example 10), 25 C
Description: Binding of pTau fragment to anti-pTau antibodies was investigated by surface plasmon resonance using a BIACORE T200 instrument (GE Healthcare). Around 10,000 resonance units (RU) of the capturing system (10 μg/ml goat anti-human Fc antibody; Jackson Immuno Research; Order Code: JIR 109-005-098) were coupled on a CM5 chip (GE Healthcare BR-1005-30) at pH 5.0 by using an amine coupling kit supplied by the GE Healthcare. As running buffer, HBS-N pH 7.4 (10 mM HEPES, 150 mM NaCl, pH 7.4, GE Healthcare) was used. For measurement of the samples, running and dilution buffer was PBS-T (10 mM phosphate buffered saline including 0.05% Tween 20), pH 7.4. The sample block was set to 12° C. The flow cell was set to 25° C. and primed with running buffer twice.

Kd [nM] | koff [s⁻¹] | kon [M⁻¹ s⁻¹] | Binder
2 | 0.000624 | 312000 | B1
2.29 | 0.000321 | 140000 | B2
1.62 | 0.000616 | 380000 | B3

Target: T2, biotinylated pTau fragment …
Experiment: SPR direct assay (Example 11), Fab over immobilized biotinylated fragment, 25 C
Description: Binding of anti-pTau antibody Fab fragment samples to pTau fragment was investigated by surface plasmon resonance using a BIACORE T200 instrument (GE Healthcare). […] Running and dilution buffer for immobilization was HBS-N, pH 7.4 (10 mM HEPES, 150 mM NaCl, pH 7.4, GE Healthcare). For the following kinetic characterization, running and dilution buffer was PBS-T (10 mM phosphate buffered saline including 0.05% Tween 20), pH 7.4. The sample block was set to 12° C. The flow cell was set to 25° C. and primed with running buffer twice.
Association was measured by injection of the anti-pTau antibody Fab fragment samples at various concentrations in solution for 180 seconds at a flow of 30 μl/min starting with 100 nM in 1:3 dilutions. The dissociation phase was monitored for up to 600 seconds and triggered by switching from the sample solution to running buffer. The surface was regenerated by washing with one injection of 10 mM glycine solution, pH 1.7 for 60 seconds at a flow rate of 10 μl/minute. Bulk refractive index differences were corrected by subtracting the response obtained from a blank surface. Blank injections were also subtracted (=double referencing). For calculation of KD and other kinetic parameters the Langmuir 1:1 model was used.

Kd [nM] | koff [s⁻¹] | kon [M⁻¹ s⁻¹] | Binder
0.3 | 0.000143 | 410000 | B4
0.6 | 0.000276 | 479000 | B5
0.1 | 6.03e-05 | 423000 | B6

target: T4, full length human tau SEQ ID NO: 01 (human, UniProt P10636 1-758); experiment: ELISA, non-phosphorylated full-length human tau coated at 1 ug/ml, antibody titrated
T4 construct: not phosphorylated; also called tau protein; non-phosphorylated full-length human tau
T4 sequence (P10636 other isoform, or with tags, fused parts or gaps limits assumed): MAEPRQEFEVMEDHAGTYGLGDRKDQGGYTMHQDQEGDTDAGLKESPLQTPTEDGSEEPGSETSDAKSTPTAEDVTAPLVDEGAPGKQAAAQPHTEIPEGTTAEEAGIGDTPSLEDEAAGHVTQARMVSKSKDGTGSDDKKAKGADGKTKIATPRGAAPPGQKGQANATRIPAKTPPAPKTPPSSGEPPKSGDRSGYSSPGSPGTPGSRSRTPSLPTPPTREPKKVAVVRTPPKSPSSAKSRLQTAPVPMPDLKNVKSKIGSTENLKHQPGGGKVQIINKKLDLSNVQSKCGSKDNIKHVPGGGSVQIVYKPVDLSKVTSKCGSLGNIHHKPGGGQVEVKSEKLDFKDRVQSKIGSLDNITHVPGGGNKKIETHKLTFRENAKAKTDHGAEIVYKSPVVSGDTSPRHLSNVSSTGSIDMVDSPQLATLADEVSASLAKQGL

binding result | Binder
no binding (tested: 1000 ng/ml) | B7
no binding (tested: 1000 ng/ml) | B8

Target: T1, Tau(pS422) fragment SEQ ID NO: 03
Experiment: ELISA
Description: (§1) Non-biotinylated peptide/protein/aggregate was added to non-coated Maxisorb plates, biotinylated peptide/protein/aggregate in PBS was added to streptavidin-coated Maxisorb plates, and plates were incubated over-night. The supernatant was discarded and the wells washed three times with 90 μl wash buffer (1x PBS/0.1% Tween 20). Remaining reactive spots were blocked with blocking buffer (1x PBS/2% BSA (Bovine Serum Albumin Fraction V, fatty acid free, Roche, Cat. No.: 10735078001)/0.05% Tween 20) by incubating for 1 hour. The supernatant was discarded and the wells washed three times with 90 μl wash buffer. Samples and control antibody were prepared in 12 dilutions (1:2) in ELISA buffer (1×PBS/0.5% BSA (Bovine Serum Albumin Fraction V, fatty acid free, Roche, Cat. No.: 10735078001)/0.05% Tween 20) with a start concentration of 500 ng/mL. The incubation time was 60 minutes at room temperature on a shaker. The supernatant was discarded and the wells washed three times with 90 μl wash buffer. Solutions of secondary antibody were prepared in ELISA buffer. A total of 25 μl antibody-mix was transferred to all wells of the assay plate and the plate was thereafter incubated on shaker for 60 minutes at room temperature. The supernatant was discarded and the wells were washed three times with 90 μl wash buffer. 25 μl of ABTS solution was added to all wells. The absorbance was read at 405 nm-492 nm.

EC50 [µg/mL] | Binder
0.0056 | B8

Target: T1, Tau(pS422) fragment SEQ ID NO: 03
Experiment: ELISA, ratio of EC50 values
Description: Rabbit monoclonal antibodies were recombinantly expressed in HEK293 cells. […] For preparation of ELISA plates, streptavidin pre-coated microtiter plates were incubated with biotinylated tau (415-430)[pS422] at 50 ng/ml for 1 hour at room temperature. Coating with KLH or control peptides was performed at 1 μg/ml. Rabbit anti-Tau(pS422) antibody (Abcam AB51071) or rabbit antibody containing supernatants were incubated in the antigen labeled microtiter plates for 60 minutes at various concentrations. After intensive washing, the binding of the rabbit antibodies was detected using a sheep anti-rabbit IgG […] conjugated detection antibody (Chemicon AQ301D). After incubation with TMB at room temperature absorbance at 370 nm-492 nm was measured. The antibody binding was characterized by its EC₅₀ values. […] Cross-reactivity with KLH or MCAK phosphopeptide was estimated by single-point measurement at high concentrations, i.e., at 1:5 dilution of the cell culture supernatants. […] Binding to KLH and MCAK control phosphopeptide was at background level with all antibodies, which is about 1 to 3% of the maximal value measures with tau phosphopeptide.

selectivity for phosphorylated tau fragment compared to non-phosphorylated tau peptide [fold] | Binder
≥ 100 | B9

target: T4, full length human tau SEQ ID NO: 01; experiment: ELISA
Description: as §1, with “No.: 10735078001)/0.05% Tween 20) with a start concentration of 500 ng/mL.” left out

OD@1 µg/mL [OD] | Binder
0.04 | B10
0.04 | B11
0.04 | B12
0.04 | B13
0.04 | B1
0.04 | B2
0.14 | B8
0.04 | B3
0.04 | B14

Target: T3, tau peptide residues 416 to 430 of SEQ …
Experiment: ELISA
Description: as §1, with “No.: 10735078001)/0.05% Tween 20) with a start concentration of 500 ng/mL.” left out

OD@1 µg/mL [OD] | Binder
0.07 | B10
1.13 | B11
0.44 | B12
0.07 | B13
1.42 | B1
1.31 | B2
2.26 | B8
1.03 | B3
0.54 | B14

Target: T1, Tau(pS422) fragment SEQ ID NO: 03
Experiment: ELISA
Remark: another data set of the same source
Description: as §1, with “No.: 10735078001)/0.05% Tween 20) with a start concentration of 500 ng/mL.” left out

EC50 [µg/mL] | Binder
0.0273 | B11
0.034 | B1
0.0452 | B2
0.0404 | B8
0.033 | B3
